Test results from US20250243261A1 (CZ BIOHUB SF, published 2025).
Read-outs that look alike come from different tables or passages of the source.

Assays:
[1] = molecular target: T1, Ebola GP ectodomain (Mayinga, Zaire, 1976) with the mucin-like domain deleted (Zaire ebolavirus (Mayinga, 1976), UniProt Q05320 33-650)
[2] = molecular target: T1, Ebola GP ectodomain (Mayinga, Zaire, …); remark: listed apart in the source

B1: mAb114 UCA VH T41P IgG (antibody, V domains shown)
VH: EVQLVESGGGLVQPGGSLRLSCAASGFTFSSYDMHWVRQAPGKGLEWVSAIGTAGDTYYPGSVKGRFTISRENAKNSLYLQMNSLRAGDTAVYYCVRSDRGVAGLFDSWGQGTLVTVSS
VL: DIQMTQSPSSLSASVGDRVTITCRASQGISNYLAWYQQKPGKVPKLLIYAASTLQSGVPSRFSGSGSGTDFTLTISSLQPEDVATYYCQKYNSAPLTFGGGTKVEIK
- Kd [1]: 0.1 µM

B2: mAb114 UCA VH P60A IgG (antibody, V domains shown)
VH: EVQLVESGGGLVQPGGSLRLSCAASGFTFSSYDMHWVRQATGKGLEWVSAIGTAGDTYYAGSVKGRFTISRENAKNSLYLQMNSLRAGDTAVYYCVRSDRGVAGLFDSWGQGTLVTVSS
VL: DIQMTQSPSSLSASVGDRVTITCRASQGISNYLAWYQQKPGKVPKLLIYAASTLQSGVPSRFSGSGSGTDFTLTISSLQPEDVATYYCQKYNSAPLTFGGGTKVEIK
- Kd [1]: 40 µM

B3: mAb114 UCA VH G61D IgG (antibody, V domains shown)
VH: EVQLVESGGGLVQPGGSLRLSCAASGFTFSSYDMHWVRQATGKGLEWVSAIGTAGDTYYPDSVKGRFTISRENAKNSLYLQMNSLRAGDTAVYYCVRSDRGVAGLFDSWGQGTLVTVSS
VL: DIQMTQSPSSLSASVGDRVTITCRASQGISNYLAWYQQKPGKVPKLLIYAASTLQSGVPSRFSGSGSGTDFTLTISSLQPEDVATYYCQKYNSAPLTFGGGTKVEIK
- Kd [1]: 0.1 µM

B4: mAb114 UCA VH A54G IgG (antibody, V domains shown)
VH: EVQLVESGGGLVQPGGSLRLSCAASGFTFSSYDMHWVRQATGKGLEWVSAIGTGGDTYYPGSVKGRFTISRENAKNSLYLQMNSLRAGDTAVYYCVRSDRGVAGLFDSWGQGTLVTVSS
VL: DIQMTQSPSSLSASVGDRVTITCRASQGISNYLAWYQQKPGKVPKLLIYAASTLQSGVPSRFSGSGSGTDFTLTISSLQPEDVATYYCQKYNSAPLTFGGGTKVEIK
- Kd [1]: 80 µM

B5: mAb114 VH M31S Fab (Fab, V domains shown)
VH: EVQLVESGGGLIQPGGSLRLSCAASGFALRSYDMHWVRQTIDKRLEWVSAVGPSGDTYYADSVKGRFAVSRENAKNSLSLQMNSLTAGDTAIYYCVRSDRGVAGLFDSWGQGILVTVSS
VL: DIQMTQSPSSLSASVGDRITITCRASQAFDNYVAWYQQRPGKVPKLLISAASALHAGVPSRFSGSGSGTHFTLTISSLQPEDVATYYCQNYNSAPLTFGGGTKVEIK
- Kd [2]: 0.1 nM

B6: mAb114 VH S79Y Fab (Fab, V domains shown)
VH: EVQLVESGGGLIQPGGSLRLSCAASGFALRMYDMHWVRQTIDKRLEWVSAVGPSGDTYYADSVKGRFAVSRENAKNSLYLQMNSLTAGDTAIYYCVRSDRGVAGLFDSWGQGILVTVSS
VL: DIQMTQSPSSLSASVGDRITITCRASQAFDNYVAWYQQRPGKVPKLLISAASALHAGVPSRFSGSGSGTHFTLTISSLQPEDVATYYCQNYNSAPLTFGGGTKVEIK
- Kd [2]: 0.1 nM

B7: mAb114 VL N90Q Fab (Fab, V domains shown)
VH: EVQLVESGGGLIQPGGSLRLSCAASGFALRMYDMHWVRQTIDKRLEWVSAVGPSGDTYYADSVKGRFAVSRENAKNSLSLQMNSLTAGDTAIYYCVRSDRGVAGLFDSWGQGILVTVSS
VL: DIQMTQSPSSLSASVGDRITITCRASQAFDNYVAWYQQRPGKVPKLLISAASALHAGVPSRFSGSGSGTHFTLTISSLQPEDVATYYCQQYNSAPLTFGGGTKVEIK
- Kd [2]: 4 nM

B8: mAb114 VH I41P-D42G-A68T-S79Y-I113T / VL V43A Fab (Fab, V domains shown)
VH: EVQLVESGGGLIQPGGSLRLSCAASGFALRMYDMHWVRQTPGKRLEWVSAVGPSGDTYYADSVKGRFTVSRENAKNSLYLQMNSLTAGDTAIYYCVRSDRGVAGLFDSWGQGTLVTVSS
VL: DIQMTQSPSSLSASVGDRITITCRASQAFDNYVAWYQQRPGKAPKLLISAASALHAGVPSRFSGSGSGTHFTLTISSLQPEDVATYYCQNYNSAPLTFGGGTKVEIK
- Kd [2]: 0.069 nM

B9: mAb114 VL F29I Fab (Fab, V domains shown)
VH: EVQLVESGGGLIQPGGSLRLSCAASGFALRMYDMHWVRQTIDKRLEWVSAVGPSGDTYYADSVKGRFAVSRENAKNSLSLQMNSLTAGDTAIYYCVRSDRGVAGLFDSWGQGILVTVSS
VL: DIQMTQSPSSLSASVGDRITITCRASQAIDNYVAWYQQRPGKVPKLLISAASALHAGVPSRFSGSGSGTHFTLTISSLQPEDVATYYCQNYNSAPLTFGGGTKVEIK
- Kd [2]: 0.5 nM

B10: mAb114 VL H70D Fab (Fab, V domains shown)
VH: EVQLVESGGGLIQPGGSLRLSCAASGFALRMYDMHWVRQTIDKRLEWVSAVGPSGDTYYADSVKGRFAVSRENAKNSLSLQMNSLTAGDTAIYYCVRSDRGVAGLFDSWGQGILVTVSS
VL: DIQMTQSPSSLSASVGDRITITCRASQAFDNYVAWYQQRPGKVPKLLISAASALHAGVPSRFSGSGSGTDFTLTISSLQPEDVATYYCQNYNSAPLTFGGGTKVEIK
- Kd [2]: 0.3 nM

B11: mAb114 VH E72D Fab (Fab, V domains shown)
VH: EVQLVESGGGLIQPGGSLRLSCAASGFALRMYDMHWVRQTIDKRLEWVSAVGPSGDTYYADSVKGRFAVSRDNAKNSLSLQMNSLTAGDTAIYYCVRSDRGVAGLFDSWGQGILVTVSS
VL: DIQMTQSPSSLSASVGDRITITCRASQAFDNYVAWYQQRPGKVPKLLISAASALHAGVPSRFSGSGSGTHFTLTISSLQPEDVATYYCQNYNSAPLTFGGGTKVEIK
- Kd [2]: 0.1 nM

B12: mAb114 VL I19V Fab (Fab, V domains shown)
VH: EVQLVESGGGLIQPGGSLRLSCAASGFALRMYDMHWVRQTIDKRLEWVSAVGPSGDTYYADSVKGRFAVSRENAKNSLSLQMNSLTAGDTAIYYCVRSDRGVAGLFDSWGQGILVTVSS
VL: DIQMTQSPSSLSASVGDRVTITCRASQAFDNYVAWYQQRPGKVPKLLISAASALHAGVPSRFSGSGSGTHFTLTISSLQPEDVATYYCQNYNSAPLTFGGGTKVEIK
- Kd [2]: 0.2 nM

B13: mAb114 VH I113T Fab (Fab, V domains shown)
VH: EVQLVESGGGLIQPGGSLRLSCAASGFALRMYDMHWVRQTIDKRLEWVSAVGPSGDTYYADSVKGRFAVSRENAKNSLSLQMNSLTAGDTAIYYCVRSDRGVAGLFDSWGQGTLVTVSS
VL: DIQMTQSPSSLSASVGDRITITCRASQAFDNYVAWYQQRPGKVPKLLISAASALHAGVPSRFSGSGSGTHFTLTISSLQPEDVATYYCQNYNSAPLTFGGGTKVEIK
- Kd [2]: 0.07 nM

B14: mAb114 VH I41P Fab (Fab, V domains shown)
VH: EVQLVESGGGLIQPGGSLRLSCAASGFALRMYDMHWVRQTPDKRLEWVSAVGPSGDTYYADSVKGRFAVSRENAKNSLSLQMNSLTAGDTAIYYCVRSDRGVAGLFDSWGQGILVTVSS
VL: DIQMTQSPSSLSASVGDRITITCRASQAFDNYVAWYQQRPGKVPKLLISAASALHAGVPSRFSGSGSGTHFTLTISSLQPEDVATYYCQNYNSAPLTFGGGTKVEIK
- Kd [2]: 0.3 nM

B15: mAb114 VL V43A Fab (Fab, V domains shown)
VH: EVQLVESGGGLIQPGGSLRLSCAASGFALRMYDMHWVRQTIDKRLEWVSAVGPSGDTYYADSVKGRFAVSRENAKNSLSLQMNSLTAGDTAIYYCVRSDRGVAGLFDSWGQGILVTVSS
VL: DIQMTQSPSSLSASVGDRITITCRASQAFDNYVAWYQQRPGKAPKLLISAASALHAGVPSRFSGSGSGTHFTLTISSLQPEDVATYYCQNYNSAPLTFGGGTKVEIK
- Kd [2]: 0.07 nM

B16: mAb114 VH A68T-I113T / VL V43A Fab (Fab, V domains shown)
VH: EVQLVESGGGLIQPGGSLRLSCAASGFALRMYDMHWVRQTIDKRLEWVSAVGPSGDTYYADSVKGRFTVSRENAKNSLSLQMNSLTAGDTAIYYCVRSDRGVAGLFDSWGQGTLVTVSS
VL: DIQMTQSPSSLSASVGDRITITCRASQAFDNYVAWYQQRPGKAPKLLISAASALHAGVPSRFSGSGSGTHFTLTISSLQPEDVATYYCQNYNSAPLTFGGGTKVEIK
- Kd [2]: 0.17 nM

B17: mAb114 VH I41P-D42G-A68T-S79Y-I113T Fab (Fab, V domains shown)
VH: EVQLVESGGGLIQPGGSLRLSCAASGFALRMYDMHWVRQTPGKRLEWVSAVGPSGDTYYADSVKGRFTVSRENAKNSLYLQMNSLTAGDTAIYYCVRSDRGVAGLFDSWGQGTLVTVSS
VL: DIQMTQSPSSLSASVGDRITITCRASQAFDNYVAWYQQRPGKVPKLLISAASALHAGVPSRFSGSGSGTHFTLTISSLQPEDVATYYCQNYNSAPLTFGGGTKVEIK
- Kd [2]: 0.19 nM

B18: mAb114 VH A68T-E72D-S79Y-I113T / VL V43A Fab (Fab, V domains shown)
VH: EVQLVESGGGLIQPGGSLRLSCAASGFALRMYDMHWVRQTIDKRLEWVSAVGPSGDTYYADSVKGRFTVSRDNAKNSLYLQMNSLTAGDTAIYYCVRSDRGVAGLFDSWGQGTLVTVSS
VL: DIQMTQSPSSLSASVGDRITITCRASQAFDNYVAWYQQRPGKAPKLLISAASALHAGVPSRFSGSGSGTHFTLTISSLQPEDVATYYCQNYNSAPLTFGGGTKVEIK
- Kd [2]: 0.076 nM

B19: mAb114 VH D42G-A68T-S79Y Fab (Fab, V domains shown)
VH: EVQLVESGGGLIQPGGSLRLSCAASGFALRMYDMHWVRQTIGKRLEWVSAVGPSGDTYYADSVKGRFTVSRENAKNSLYLQMNSLTAGDTAIYYCVRSDRGVAGLFDSWGQGILVTVSS
VL: DIQMTQSPSSLSASVGDRITITCRASQAFDNYVAWYQQRPGKVPKLLISAASALHAGVPSRFSGSGSGTHFTLTISSLQPEDVATYYCQNYNSAPLTFGGGTKVEIK
- Kd [2]: 0.19 nM

B20: mAb114 VH D42G Fab (Fab, V domains shown)
VH: EVQLVESGGGLIQPGGSLRLSCAASGFALRMYDMHWVRQTIGKRLEWVSAVGPSGDTYYADSVKGRFAVSRENAKNSLSLQMNSLTAGDTAIYYCVRSDRGVAGLFDSWGQGILVTVSS
VL: DIQMTQSPSSLSASVGDRITITCRASQAFDNYVAWYQQRPGKVPKLLISAASALHAGVPSRFSGSGSGTHFTLTISSLQPEDVATYYCQNYNSAPLTFGGGTKVEIK
- Kd [2]: 0.2 nM

B21: mAb114 VL S49Y Fab (Fab, V domains shown)
VH: EVQLVESGGGLIQPGGSLRLSCAASGFALRMYDMHWVRQTIDKRLEWVSAVGPSGDTYYADSVKGRFAVSRENAKNSLSLQMNSLTAGDTAIYYCVRSDRGVAGLFDSWGQGILVTVSS
VL: DIQMTQSPSSLSASVGDRITITCRASQAFDNYVAWYQQRPGKVPKLLIYAASALHAGVPSRFSGSGSGTHFTLTISSLQPEDVATYYCQNYNSAPLTFGGGTKVEIK
- Kd [2]: 0.6 nM

B22: mAb114 VH A68T Fab (Fab, V domains shown)
VH: EVQLVESGGGLIQPGGSLRLSCAASGFALRMYDMHWVRQTIDKRLEWVSAVGPSGDTYYADSVKGRFTVSRENAKNSLSLQMNSLTAGDTAIYYCVRSDRGVAGLFDSWGQGILVTVSS
VL: DIQMTQSPSSLSASVGDRITITCRASQAFDNYVAWYQQRPGKVPKLLISAASALHAGVPSRFSGSGSGTHFTLTISSLQPEDVATYYCQNYNSAPLTFGGGTKVEIK
- Kd [2]: 0.1 nM
